Molecular target: MFSD1-strep (mouse Major Facilitator Superfamily Domain Containing 1 with N-terminal Twin-Streptavidin-tag) (mouse) (UniProt Q9DC37)
Test: nanoDSF

Chain of UniProt Q9DC37 (Q9DC37 whole entry, the tested form may be a part): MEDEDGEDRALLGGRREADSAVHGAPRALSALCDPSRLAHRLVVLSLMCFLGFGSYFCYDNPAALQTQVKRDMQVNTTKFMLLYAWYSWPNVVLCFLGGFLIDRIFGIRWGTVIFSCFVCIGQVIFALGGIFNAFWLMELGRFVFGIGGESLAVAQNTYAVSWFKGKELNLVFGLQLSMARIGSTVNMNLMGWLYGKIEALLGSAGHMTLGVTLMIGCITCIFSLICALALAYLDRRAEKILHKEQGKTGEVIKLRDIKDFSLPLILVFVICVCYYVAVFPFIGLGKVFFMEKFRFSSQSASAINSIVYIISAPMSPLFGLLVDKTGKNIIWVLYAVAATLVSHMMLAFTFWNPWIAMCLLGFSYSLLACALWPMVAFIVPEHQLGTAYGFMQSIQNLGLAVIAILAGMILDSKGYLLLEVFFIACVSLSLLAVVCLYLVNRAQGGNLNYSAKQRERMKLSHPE

Row | Kd | ΔTm | Substance
1 | 765 µM | 12 °C | His-Lys (peptide)
2 | 318 µM | 12.1 °C | Pro-Arg (peptide)
3 | 2200 µM |  | Leu-Ala (peptide)
4 | 4300 µM |  | Lys-Val (peptide)
5 | 6700 µM |  | His-Ala (peptide)
6 |  | 14 °C | Leu-Leu (peptide)
